# Measured values: patent publication US7101851 (dated 2006)
# Where “and” joins values, the source holds several entries; their conditions need not be identical. Equal values may be shown once. Where no end group is shown, it is not given here.
# T1: extracellular domain of the alpha subunit of the human FcεRI (aa 1-176) (human, UniProt P12319 26-201)
# T1 construct: range 1-176; also called soluble FcεRI; baculovirus-derived FcεRI
# T1 sequence (looked up): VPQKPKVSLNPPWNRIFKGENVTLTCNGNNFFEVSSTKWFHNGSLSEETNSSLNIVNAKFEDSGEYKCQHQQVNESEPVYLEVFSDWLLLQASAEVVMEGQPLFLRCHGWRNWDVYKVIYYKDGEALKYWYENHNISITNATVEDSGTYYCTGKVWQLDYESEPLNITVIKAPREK
# T2: FcεRI-IgG (UniProt P12319 26-205)
# T2 construct: extracellular domain; Produced from CHO cells (Genentech); also called FcεRI-Fc; bivalent fusion protein of the extracellular domain of FcεRI and the Fc domain of IgG; not shown: Fc domain of IgG
# T2 sequence (looked up): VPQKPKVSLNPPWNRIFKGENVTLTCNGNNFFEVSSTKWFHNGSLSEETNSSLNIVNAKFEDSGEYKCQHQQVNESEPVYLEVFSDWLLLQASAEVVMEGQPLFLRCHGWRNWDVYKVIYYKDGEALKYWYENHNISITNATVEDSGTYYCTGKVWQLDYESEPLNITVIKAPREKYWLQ
# B1: g3c.42 peptide-phage (peptide)
# peptide: NLPRCTEGPWGWVCMAAD
# modifications: not fully specified (bridges); cysteine pairing not given here
# notes: Monovalent g3p phage display; not shown: fused to M13 gene-3 protein (g3p) on phage
# What was measured:
# [1] = target: T1, extracellular domain of the alpha …; experiment: competitive phage ELISA on FcεRI (FIG. 2)
# Protocol: Phage ELISA assays were carried out as described (Lowman, 1998, supra), using Nunc Maxisorp™ plates coated with a 2 μg/mL solution of baculovirus-derived FcεRI. Peptide-phage were pre-incubated for 5–10 min with serial dilutions of receptor, then added to the receptor-coated plate. After incubation for 1 h at room temperature, the plates were washed and an anti-phage HRP-conjugated antibody (Pharmacia) was added. After further incubation for 20 min, plates were again washed and developed using the substrate OPD (Sigma). Optical density at 492 nm was read and plotted as a function of FcεRI concentration to determine an $IC50$ of inhibition by each peptide-phage variant.
# These libraries were sorted for FcεRI binding as described above. […] The "linker region" (underlined) of the peptide was randomized in this library.
# [2] = target: T1, extracellular domain of the alpha …; experiment: competitive phage ELISA on FcεRI (FIG. 1)
# FcεRI-IgG [3] = target: T2, FcεRI-IgG; experiment: competitive phage ELISA; reference of the N-terminal truncation series
# Protocol: (§1) This oligonucleotide was annealed with a g3 single stranded DNA phagemid template. The mutagenesis reaction was transformed into XL-1 Blue *E. coli* and plated on LB-carb+ agar plates. Individual colonies were propagated in 5 mL of 2YT broth, tetracycline, carbenicillin and VCSM13 helper phage (Stratagene). Single stranded DNA was isolated from the purified phage particles and sequenced to confirm the insertion of the phage peptide sequence. 25 mL preparations of g3 phage clones were propagated overnight and purified by PEG precipitation. After resuspension of the phage pellet in 1.0 mL of PBS, it was serially diluted 1/3 and incubated with immobilized FcεRI-IgG 2 ug/mL in a 96 well Maxisorp microtiter plate for 1 hour at room temperature. The wells were washed 10× with PBST then incubated with 100 uL of anti M13 phage HRP as described above. An OD(492) value corresponding to less than 50% binding was selected and the purified phage clones were diluted to yield this normalized level of signal. […] The mixture was then transferred to 96 well microtiter dishes containing immobilized FcεRI-IgG. After a 1-hour incubation period, the plates were washed 10 times, incubated with anti M13-HRP conjugated antibody and developed with OPD as described above.
# (§2) In addition, stepwise N-terminal and C-terminal truncations of the peptide sequence were constructed. […]
# FcεRI-IgG [4] = target: T2, FcεRI-IgG; experiment: competitive phage ELISA; reference of the C-terminal truncation series
# Protocol: as §1, §2
# FcεRI-IgG [5] = target: T2, FcεRI-IgG; experiment: competitive phage ELISA: g3 peptide-phage on immobilized FcεRI-IgG, soluble FcεRI-IgG titrated
# Protocol: as §1
# In addition, stepwise N-terminal and C-terminal truncations of the peptide sequence were constructed. All constructs were made by designing oligonucleotides corresponding to the desired substitution or truncation, with an additional 18 bp of DNA overlapping the peptide or g3 phage DNA sequence. The phage clones were propagated overnight following infection in XL-1 Blue *E. coli*. Purified phage preparations were titered and assayed for binding to immobilized receptor. FcεRI-IgG competition assays were performed as described above.
binder,measurement,setting,value
IVCPRLCYELDYELCPDVCYV (not shown: M13 g3p display) [phage clone IVCPRLCYELDYELCPDVCYV from the IGE120-phage library (NBO895-619D)],fold improved affinity over IGE120,[1],~2 fold
VQCPHFCYVGGKALCPDVCYV (not shown: M13 g3p display) [IGE122-phage VQCPHFCYVGGKALCPDVCYV],binding result,[2],binds
B1,Relative (IC50) (fold weaker),FcεRI-IgG [3],1 fold
same,Relative (IC50) (fold weaker),FcεRI-IgG [4],1 fold
same,IC50,FcεRI-IgG [5],5.6 nM and 3.1 nM
